Results published in doi:10.1101/2025.10.27.684894, “Alternative splicing of synaptotagmin 7 regulates oligomerization and short-term synaptic plasticity” (bioRxiv, 2025).

Biological target: T1, Halo-tagged α-syt7cyto (cytoplasmic domain of synaptotagmin 7 α, immobilised on HaloLink resin) (mouse, UniProt Q9R0N7 38-403)
T1 construct: synaptotagmin 7, α splice variant, cytoplasmic domain; The Halo-tagged construct is not described under DNA constructs; The sentence on syt1-fl says only 'immobilized syt7'; also called immobilized syt7; source: purified Halo-tagged protein; recombinant proteins were expressed in E. coli BL21(DE3)
Assay: pull-down; Halo-tagged bait immobilised on HaloLink resin (7 μM bait), prey syt1-fl in DOPC proteoliposomes; 25 mM HEPES pH 7.4, 100 mM KCl, 0.2 mM EGTA or 1.2 mM Ca2+; 1 h at 25 °C; supernatants analysed by SDS-PAGE and Western blot
Settings: both partners purified

T1 sequence (Q9R0N7 38-403): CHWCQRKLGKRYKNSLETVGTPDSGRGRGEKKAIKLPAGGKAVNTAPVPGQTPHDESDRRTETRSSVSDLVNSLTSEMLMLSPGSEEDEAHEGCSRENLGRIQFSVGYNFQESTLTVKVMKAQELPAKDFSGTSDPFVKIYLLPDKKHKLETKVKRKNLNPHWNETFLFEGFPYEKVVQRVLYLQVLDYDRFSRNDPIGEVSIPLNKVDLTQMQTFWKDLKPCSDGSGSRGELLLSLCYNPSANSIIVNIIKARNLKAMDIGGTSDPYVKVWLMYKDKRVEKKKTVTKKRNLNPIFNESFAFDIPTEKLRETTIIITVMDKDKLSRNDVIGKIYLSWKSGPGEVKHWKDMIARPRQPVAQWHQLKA

ratio of binding in Ca2+ to binding in EGTA: 1.46 ± 0.15
B1: syt1-fl (full-length synaptotagmin 1, reconstituted into liposomes) (natural protein, rat, UniProt P21707 1-421, looked up)
chain: MVSASHPEALAAPVTTVATLVPHNATEPASPGEGKEDAFSKLKQKFMNELHKIPLPPWALIAIAIVAVLLVVTCCFCVCKKCLFKKKNKKKGKEKGGKNAINMKDVKDLGKTMKDQALKDDDAETGLTDGEEKEEPKEEEKLGKLQYSLDYDFQNNQLLVGIIQAAELPALDMGGTSDPYVKVFLLPDKKKKFETKVHRKTLNPVFNEQFTFKVPYSELGGKTLVMAVYDFDRFSKHDIIGEFKVPMNTVDFGHVTEEWRDLQSAEKEEQEKLGDICFSLRYVPTAGKLTVVILEAKNLKKMDVGGLSDPYVKIHLMQNGKRLKKKKTTIKKNTLNPYYNESFSFEVPFEQIQKVQVVVTVLDYDKIGKNDAIGKVFVGYNSTGAELRHWSDMLANPRRPIAQWHTLQVEEEVDAMLAVKK
notes: synaptotagmin 1, rat cDNA from T. C; Sudhof (Perin et al., 1990); the D374 mutation of that cDNA was corrected to glycine, so residue 374 is G; also called SUMO-syt1-fl; source: E. coli BL21(DE3), purified (with 0.9% CHAPS; cleaved from the beads with SUMO protease), reconstituted into DOPC proteoliposomes
